Reference: the supplement of paper PMC12764529
± gives the half width of the 95% confidence interval.

Assays:
[1] = folding stability dG unfold from chymotrypsin proteolysis; higher = more stable
Summary of the method: (§1)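 K50 was inferred by Bayesian fitting of sequencing counts obtained after protease digestion of designed mini-proteins. Unfolding free energy was derived by comparison with a sequence-predicted unfolded-state K50 and a shared folded-state K50, for each protease or both combined. The mini-proteins were under 80 residues, had no cysteine, were carried in a PA-tagged cDNA display construct, and were kept only if AlphaFold2 dimer inter-PAE exceeded 15.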

[2] = folding stability dG unfold (combined trypsin and chymotrypsin); higher = more stable
Summary of the method: as §1

[3] = folding stability dG unfold from trypsin proteolysis; higher = more stable
Summary of the method: as §1

Sequence | folding stability dG unfold [1] [kJ/mol] | folding stability dG unfold [2] [kJ/mol] | folding stability dG unfold [3] [kJ/mol]
SAGGSYLVEVVIEYPKQGVKKTVKLFVNNDPKKAEELAEDIIKELGYPDAKIEIKIIPVDPNDPRVLGSAGG [r13_682_JUSTAS] | 10.23 ± 0.092 | 9.42 ± 0.238 | 8.3 ± 0.142
SAGGTFQVKDPNGKQKPVQLRVRITFEFKGGDKQTFEIEVEGATVDDLREFANSLMNKGFKPVSIEIWSAGG [r13_227_TrROS] | 8.49 ± 0.197 | 7.86 ± 0.201 | 6.673 ± 0.0393
SAGGTIKITIKAENLTEEEKEELAKKIADELKKKGYKVKKVEVTVEKEKEKTVTITLENGKKIEVKLSAGGS [r8_485_TrROS_Hall] | 10.7 ± 0.159 | 9.68 ± 0.753 | 6.23 ± 0.301
SAGGTITIELDGVTIEVRVEEKDGTLTLTAKVYNKDTGEVFEIEITITRKEDGSVTITIKITKIEPLPSAGG [r13_1004_TrROS_Hall] | 16.6 ± 1.17 | 16.2 ± 2.22 | 10.2 ± 0.669
SAGGTIYIWFPMKVDEAVDLAKELAENKDWKIEIYNGGKEHEIELDKIEPVPPENVRVYIEIEPKPDSAGGS [r16_628_TrROS] | 6.88 ± 0.343 | 5.26 ± 0.406 | 1.77 ± 0.172
SAGGTMKYDVEQKYKYPDPDGNPGGEGKHTQEVEVPPPPVIIIPPNDRELAKELAEKFGIPITPDDIASAGG [r19_315_TrROS] | 2.09 ± 1.05 | 2.55 ± 1.63 | 3.57 ± 0.753
SAGGTSPVTIPVTFDDLPPDAVDEAKARAEELAEELRAQGHEVLSVTIEIEPGRVTVTLTVTFPGGAPLSAG [r5_515_JUSTAS] | 2.61 ± 0.226 | 5.42 ± 0.502 | 8.07 ± 0.339
SAGGTTTTLTFETEEEAREFAEELREKHPDVVLEVEIRRETRTVTVPGVGEVREVDRVVVTVTLTPASAGGS [r16_828_JUSTAS] | 13.7 ± 0.268 | 12.1 ± 0.293 | 8.5 ± 0.226
SAGGVDKGPPDAEVSREVLPRKLPNGKELLEEIRTRVLASGSLLVDRTIRDPNSDKVESEELVDPGASAGGS [r8_129_JUSTAS] | -0.152 ± 0.669 | -0.256 ± 1.34 | 0.0877 ± 1.3
SAGGVEREPTEEDLLVATAEFLIEVRDPDSDYPLVEPVPITLPFTSLEDLLEELRRLKAEVEEALASSAGGS [r16_624_TrMRF] | 6.84 ± 0.305 | 7.1 ± 0.586 | 7.86 ± 0.385
SAGGVKEIEIPNGMRITDVDPPDGYWKIKIENPDNGKEVERPIPPGDKLKIPPNAPVTITEIEPYPPSAGGS [r16_123_TrROS] | -0.432 ± 2.01 | < -4.18 | -2.56 ± 1.13
SAGGVNPTDPAQATTTETTPSLVTLPNGEKVLVTTTTTTTPDGSTTTTTTTTNAATGATTSTTTTTASAGGS [r8_252_JUSTAS] | 10 ± 0.586 | 9.17 ± 0.586 | 8.25 ± 0.586
SAGGVREIAKRIANFAREHGYEVEVDEIEPPPNGYVVIDAKIQMRDGGKPVHEFPISIRFPPPPGDPSAGGS [r8_102_TrROS] | 14.7 ± 0.669 | 16.2 ± 2.85 | 16.7 ± 1.8
SAGGWHTIQINVRRPGKPITPEKIKEALREAYPGYPIEVEDINPEDGRITITVPENAMPRIKEALMKSAGGS [r8_235_TrROS] | 3.75 ± 0.318 | 4.24 ± 0.46 | 4.42 ± 0.172
SAGGWITVNQIRDLAKELPPGWRIKIKIEYPGKKHEHTIPPGDPITIPPNMPPEDITRIEITEIEPYSAGGS [r16_97_TrROS] | 1.86 ± 0.753 | 2.41 ± 0.46 | 1.99 ± 0.259
SAGGWMTWEFELEDEDGKDIKIEVEQNPGNPWWRVKIEHKGGKPIPEIPIPADSPDDAIDQARDLLKSAGGS [r16_158_TrROS] | -0.292 ± 2.05 | -0.622 ± 1.38 | 0.711 ± 0.879
SAGGWRLRIHIENPGNGRWITHTFPMPPGNIEKIADDMLEMLPGWKITGVEIVYEPGWITITARVKPKSAGG [r13_196_TrROS] | 12.2 ± 0.146 | 11.5 ± 0.268 | 9.421 ± 0.0669
SAGGWWIITIEFPNPEQIKKILEEAGWKVDIERRPNGSVTIFFPPDDVDKIKKAFPGFEINIHPIPPNSAGG [r13_261_TrROS] | 18.6 ± 0.389 | 17.8 ± 0.372 | 15 ± 0.46
